Experimental data published in article PMC7117682, “A homogeneous SIRPα-CD47 cell-based, ligand-binding assay: Utility for small molecule drug development in immuno-oncology” (PLoS ONE, 2020).

B1: SIRPα-Avi-biotin (soluble, biotin-conjugated SIRPα d1 construct; allelic variant not stated for the experiment) (domain or fragment)
chain: EELQVIQPDKSVLVAAGETATLRCTATSLIPVGPIQWFRGAGPGRELIYNQKEGHFPRVTTVSDLTKRNNMDFSIRIGNITPADAGTYYCVKFRKGSPDDVEFKSG
modifications: biotin (biotin-conjugated, SIRPα-Avi-biotin)
B2: SIRPα variant 1, non-biotin conjugated (cold) (domain or fragment, human, UniProt P78324 31-148, looked up)
chain: EEELQVIQPDKSVLVAAGETATLRCTATSLIPVGPIQWFRGAGPGRELIYNQKEGHFPRVTTVSDLTKRNNMDFSIRIGNITPADAGTYYCVKFRKGSPDDVEFKSGAGTELSVRAKP
notes: SIRPα allelic variant 1, human; non-biotin conjugated analog of the biotin-conjugated d1 construct; also called cold SIRPαV1; non-biotin conjugated SIRPαV1; source: produced as described in [33]

Experiments:
Details in all cases: one partner purified
[1] = target: T1, CD47 naturally expressed on CD47(+) Jurkat T lymphoma cells (human (endogenous in Jurkat), UniProt Q08722 19-323); experiment: laser scanning cytometry (LSC) on cells; titration of SIRPα-biotin on Jurkat cells fixed in 4% paraformaldehyde (30 min on ice), homogeneous, neutravidin-Alexa488; with or without 1% DMSO
T1 construct: CD47, human, endogenous on the surface of Jurkat T lymphoma cells; also called cell-expressed CD47; native, cell surface expressed CD47; source: endogenous, on Jurkat cells (live or fixed in 4% paraformaldehyde)

[2] = target: T1, CD47 naturally expressed on CD47(+) …; experiment: laser scanning cytometry (LSC) on cells; titration of SIRPα-biotin on live DRAQ5-labelled Jurkat cells, 384-well, homogeneous (no wash), HEPES buffer (10 mM HEPES pH 7.5, 0.15 M NaCl), room temperature, neutravidin-Alexa488 0.5 μg/mL; SIRPα presented as a multimer on tetrameric neutravidin (avidity)
[3] = target: T1, CD47 naturally expressed on CD47(+) …; experiment: laser scanning cytometry (LSC) on cells; competition on live CD47(+) Jurkat cells, 384-well, homogeneous: a fixed concentration of SIRPα-biotin (20 nM) co-incubated with a titration of the competitor or inhibitor, neutravidin-Alexa488

T1 sequence (Q08722 19-323): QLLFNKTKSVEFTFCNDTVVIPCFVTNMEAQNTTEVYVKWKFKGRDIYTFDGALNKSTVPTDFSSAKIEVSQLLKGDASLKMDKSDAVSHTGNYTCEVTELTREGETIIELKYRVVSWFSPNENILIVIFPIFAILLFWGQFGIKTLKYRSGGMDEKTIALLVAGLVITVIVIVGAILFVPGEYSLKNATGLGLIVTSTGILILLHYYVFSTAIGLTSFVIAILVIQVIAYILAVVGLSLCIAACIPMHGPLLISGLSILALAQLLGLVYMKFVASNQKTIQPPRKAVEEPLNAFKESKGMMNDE

Row | Binder | EC50 [1] [nM] | EC50 [2] [nM] | IC50 [3] [nM]
1 | B1 | 1.3 | 4.6 | 
2 | B2 |  |  | 7500
